{"source": "paper PMC9792896", "about": "“Lack of ApoE inhibits ADan amyloidosis in a mouse model of familial Danish dementia” (The Journal of Biological Chemistry, 2022)", "proteins": {"B1": {"name": "ADan amyloid peptide (peptide)", "peptide": "EASNCFAIRHFENKFAVETLICFNLFLNSQEKHY", "notes": "34 aa amyloid peptide released by pro-protein convertases from the familial Danish dementia (FDD) mutant form of human BRI2 (ITM2B); The first 22 residues are as in wild-type BRI2; Reconstituted in hexafluoroisopropanol (1 mg/ml, 7 days), stock in dimethyl sulfoxide, diluted in PBS; also called Danish amyloid; source: synthetic peptide (ERI Amyloid Laboratory)"}}, "biological_target": "the molecule itself", "assay": "thioflavin-T aggregation assay; 30 μM peptide in PBS with 20 μM Th-T, pH 7.2, 100 μl in black 96-well nonbinding plate, 37 °C, fluorescence (ex 440 nm, em 495 nm) every 15 min for 18 h; peptide alone"}
{"protein": "B1", "values": [{"measurement": "binding result", "value": "binds"}]}
